{"source": "patent US20130273052A1", "key": {"[1]": {"biological_target": "human complement component C5 protein (human)", "assay": "Biacore 3000 SPR, scFv immobilised on CM5 chip, C5 0.1875-24 nM as analyte, 25 C, 1:1 Langmuir model"}, "[2]": {"biological_target": "R38Q scFv (variant of the anti-C5 single chain antibody pexelizumab)", "assay": "Biacore SPR self-association, R38Q scFv immobilised on CM5 chip, R38Q scFv 0.6-75 µM as analyte; poor fit to the Langmuir model"}, "[3]": {"biological_target": "human complement component C5 protein (human)", "assay": "cell-based or functional assay"}}}
{"substance": "R38Q scFv (variant of the anti-C5 single chain antibody pexelizumab)", "values": [{"measurement": "Kd", "setting": "[1]", "result": 0.000108, "unit": "µM"}, {"measurement": "koff", "setting": "[1]", "result": "6.06e-05", "unit": "s⁻¹"}, {"measurement": "kon", "setting": "[1]", "result": 559000, "unit": "M⁻¹ s⁻¹"}, {"measurement": "Kd", "setting": "[2]", "result": 32, "unit": "µM"}, {"measurement": "koff", "setting": "[2]", "result": 0.0107, "unit": "s⁻¹"}, {"measurement": "kon", "setting": "[2]", "result": 334, "unit": "M⁻¹ s⁻¹"}, {"measurement": "inhibition of chicken erythrocyte hemolysis in about 10% normal human serum (absorbance at 415 nm), IC50", "setting": "[3]", "result": 2, "unit": "mg/L"}]}
